Experimental data published in article PMC4813479 (The Journal of Biological Chemistry, 2015).

Biological target: full-length human αIIbβ3 on CHO K1 cells (human, UniProt P08514 32-1039; P05106 27-788)
Assay: cell-based or functional assay

EC50 of LIBS1 epitope exposure on CHO cells expressing αIIbβ3 (flow cytometry, 1 mM Mg2+ and 1 mM Ca2+): 1430 µM
B1: AGDV tetrapeptide (peptide)
peptide: AGDV
